We go through four molecules from patent US20070036810A1, “Cyclic amp response element activator proteins and uses related thereto” (priority 2003, published 2007).

“Also recorded” adds a separate entry of the source.

The assay relates to pCRE-Luc reporter (cyclic AMP response element). Kind of assay: pCRE-Luc reporter assay of CREAP1 deletion fragments in Hela cells. The class given is cell-based. The settings on record: for Activity: Flag-CREAP1 deletion constructs co-transfected with pCRE-Luc in Hela cells, Dual-Glo Luciferase 40 hrs after transfection. The protocol: CREAP1 protein amino acids 1-170, 1-356, […], 1-580 and 170-650 are inserted into pFlag-CMV4 expression vector (Sigma, St. Louis, Mo.) by utilizing PCR strategy familiar to one of skill in the art. 10^4 Hela cells are split into each well of 96 well tissue culture plates. Cells are transfected 16 hours later with 100 ng of pCRE-Luc reporter construct, 30 ng of Renilla luciferase control plasmid together with 100 ng of pCMVSPORT6, pCMVSPORT-CREAP1 and different Flag-CREAP1 deletion fusion constructs respectively. Transfection is done with Fugene6 reagent (Roche Applied Biosciences) following the manufacturer's instructions. A Dual-Glo Luciferase assay (Promega) is conducted 40 hrs after transfection. Firefly luciferase counts are normalized to Renilla luciferase and plotted.
To dissect the functional domains within the CREAP1 molecule, CREAP1 protein fragments of amino acids 1-170, 1-356, 1-494, 1-580 and 170-650 were subcloned into pFlag-CMV4 vector by utilizing PCR based strategy and tested for function in a Dual Glo Luciferase assay as described above.
Background: In a reporter assay the amount or activity of a reporter protein is the signal.

B1: K5: CREAP1 fragment, amino acids 170-650, SEQ ID NO 36, Flag fusion (protein)
chain: ALHQSTMTPTQPESFSSGSQDVHQKRVLLLTVPGMEETTSEADKNLSKQAWDTKKTGSRPKSCEVPGINIFPSADQENTTALIPATHNTGGSLPDLTNIHFPSPLPTPLDPEEPTFPALSSSSSTGNLAANLTHLGIGGAGQGMSTPGSSPQHRPAGVSPLSLSTEARRQQASPTLSPLSPITQAVAMDALSLEQQLPYAFFTQAGSQQPPPQPQPPPPPPPASQQPPPPPPPQAPVRLPPGGPLLPSASLTRGPQPPPLAVTVPSSLPQSPPENPGQPSMGIDIASAPALQQYRTSAGSPANQSPTSPVSNQGFSPGSSPQHTSTLGSVFGDAYYEQQMAARQANALSHQLEQFNMMENAISSSSLYSPGSTLNYSQAAMMGLTGSHGSLPDSQQLGYASHSGIPNIILTVTGESPPSLSKELTSSLAGVGDVSFDSDSQFPLDELKIDPLTLDGLHMLNDPDMVLADPATEDTFRMDRL
modifications: Flag tag; human
For B1, the Activity entry is on record as “lacked almost all stimulating activity”. Also, the result (listed as KS) was Inactive.

B2: K4: CREAP1 fragment, amino acids 1-580, SEQ ID NO 35, Flag fusion (protein)
chain: MATSNNPRKFSEKIALHNQKQAEETAAFEEVMKDLSLTRAARLQLQKSQYLQLGPSRGQYYGGSLPNVNQIGSGTMDLPFQPSGFLGEALAAAPVSLTPFQSSGLDTSRTTRHHGLVDRVYRERGRLGSPHRRPLSVDKHGRQADSCPYGTMYLSPPADTSWRRTNSDSALHQSTMTPTQPESFSSGSQDVHQKRVLLLTVPGMEETTSEADKNLSKQAWDTKKTGSRPKSCEVPGINIFPSADQENTTALIPATHNTGGSLPDLTNIHFPSPLPTPLDPEEPTFPALSSSSSTGNLAANLTHLGIGGAGQGMSTPGSSPQHRPAGVSPLSLSTEARRQQASPTLSPLSPITQAVAMDALSLEQQLPYAFFTQAGSQQPPPQPQPPPPPPPASQQPPPPPPPQAPVRLPPGGPLLPSASLTRGPQPPPLAVTVPSSLPQSPPENPGQPSMGIDIASAPALQQYRTSAGSPANQSPTSPVSNQGFSPGSSPQHTSTLGSVFGDAYYEQQMAARQANALSHQLEQFNMMENAISSSSLYSPGSTLNYSQAAMMGLTGSHGSLPDSQQLGYASHSGIPNIILT
modifications: Flag tag; human
Turning to B2, the Activity result is reported as “retains almost all wild type activity; also recorded: Fully active”.

B3: K3: CREAP1 fragment, amino acids 1-494, SEQ ID NO 34, Flag fusion (protein)
chain: MATSNNPRKFSEKIALHNQKQAEETAAFEEVMKDLSLTRAARLQLQKSQYLQLGPSRGQYYGGSLPNVNQIGSGTMDLPFQPSGFLGEALAAAPVSLTPFQSSGLDTSRTTRHHGLVDRVYRERGRLGSPHRRPLSVDKHGRQADSCPYGTMYLSPPADTSWRRTNSDSALHQSTMTPTQPESFSSGSQDVHQKRVLLLTVPGMEETTSEADKNLSKQAWDTKKTGSRPKSCEVPGINIFPSADQENTTALIPATHNTGGSLPDLTNIHFPSPLPTPLDPEEPTFPALSSSSSTGNLAANLTHLGIGGAGQGMSTPGSSPQHRPAGVSPLSLSTEARRQQASPTLSPLSPITQAVAMDALSLEQQLPYAFFTQAGSQQPPPQPQPPPPPPPASQQPPPPPPPQAPVRLPPGGPLLPSASLTRGPQPPPLAVTVPSSLPQSPPENPGQPSMGIDIASAPALQQYRTSAGSPANQSPTSPVSNQGFSPGSSPQHTS
modifications: Flag tag; human
Turning to B3, the Activity entry is listed as “Partially Active”.

B4: K2: CREAP1 fragment, amino acids 1-356, SEQ ID NO 33, Flag fusion (protein)
chain: MATSNNPRKFSEKIALHNQKQAEETAAFEEVMKDLSLTRAARLQLQKSQYLQLGPSRGQYYGGSLPNVNQIGSGTMDLPFQPSGFLGEALAAAPVSLTPFQSSGLDTSRTTRHHGLVDRVYRERGRLGSPHRRPLSVDKHGRQADSCPYGTMYLSPPADTSWRRTNSDSALHQSTMTPTQPESFSSGSQDVHQKRVLLLTVPGMEETTSEADKNLSKQAWDTKKTGSRPKSCEVPGINIFPSADQENTTALIPATHNTGGSLPDLTNIHFPSPLPTPLDPEEPTFPALSSSSSTGNLAANLTHLGIGGAGQGMSTPGSSPQHRPAGVSPLSLSTEARRQQASPTLSPLSPITQAVA
modifications: Flag tag; human
Consider B4, for which the result was Inactive. Further, for the setting “K2 compared with K4 (removal of amino acids 356-580)”, the “reduction of functional activity of CREAP1” value was determined as 10 fold.
